Experimental data from the supplement of paper PMC7125110.
± gives the standard error. For part of these data: Fewer inactive variants are shown than the library holds.

B1: glmS ribozyme (parent)
chain: AUAAAAGCGCCAGAACUACAGAAAUGUAGUUGACGAGGAGGAGGUUUAUCGAAUUUUCGGCGGAUGCCUCCAAA

Assays:
Conditions in all cases: with glucosamine-6-phosphate
glucosamine-6-phosphate [1] = variants of: B1; assay: kcat; higher = faster cleavage; RNA array
Summary of the method: (§1)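 Barcoded glmS ribozyme variants on sequenced MiSeq chips were transcribed in situ by E. coli RNA polymerase and tracked through a hybridised Cy3 probe at 37 °C. Glucosamine-6-phosphate (40 μM to 10 mM) in HEPES/KCl/Mg(OAc)2 buffer was flowed in, and tiles were imaged over ~14 h. Signals were normalised to baseline and to non-cleaving reference variants; per-tile medians were fit to one- or two-exponential decays to give kobs. kcat and KM came from weighted Michaelis–Menten fits across concentrations.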

glucosamine-6-phosphate [2] = variants of: B1; assay: KM; higher = weaker cofactor use; RNA array
Summary of the method: as §1

glucosamine-6-phosphate [3] = variants of: B1; assay: self-cleavage kobs at 160 uM GlcN6P; higher = faster cleavage; RNA array
Summary of the method: as §1

glucosamine-6-phosphate [4] = variants of: B1; assay: self-cleavage kobs at 640 uM GlcN6P; higher = faster cleavage; RNA array
Summary of the method: as §1

glucosamine-6-phosphate [5] = variants of: B1; assay: self-cleavage kobs at 2500 uM GlcN6P; higher = faster cleavage; RNA array
Summary of the method: as §1

glucosamine-6-phosphate [6] = variants of: B1; assay: self-cleavage kobs at 10000 uM GlcN6P; higher = faster cleavage; RNA array
Summary of the method: as §1

glucosamine-6-phosphate [7] = variants of: B1; assay: self-cleavage kobs at 40 uM GlcN6P; higher = faster cleavage; RNA array
Summary of the method: as §1

| Variant | kcat (glucosamine-6-phosphate [1]) [s⁻¹] | KM (glucosamine-6-phosphate [2]) [µM] | self-cleavage kobs at 160 uM GlcN6P (glucosamine-6-phosphate [3]) [s⁻¹] | self-cleavage kobs at 640 uM GlcN6P (glucosamine-6-phosphate [4]) [s⁻¹] | self-cleavage kobs at 2500 uM GlcN6P (glucosamine-6-phosphate [5]) [s⁻¹] | self-cleavage kobs at 10000 uM GlcN6P (glucosamine-6-phosphate [6]) [s⁻¹] | self-cleavage kobs at 40 uM GlcN6P (glucosamine-6-phosphate [7]) [s⁻¹] |
| --- | --- | --- | --- | --- | --- | --- | --- |
| AUAAAAGCGCCAGAACUACAGAAAUGUAGUUGACGAGGAGGGGGUUUAUCGGAUUUUCGGCGGAUGCCUCCAAA | 0.00211 ± 0.00034 | 2550 ± 600 | 0.000117 ± 1.7e-05 | 0.000471 ± 4.8e-05 | 0.000991 ± 8.9e-05 | 0.00187 ± 0.00037 |  |
| AUAAAAGCGCCAGAACUACAGAAAUGUAGUUGACGAGGAGGGGGUUUAUCGCAUUUUCGGCGGAUGCCUCCAAA | 1.58e-05 ± 1.8e-06 |  |  |  |  |  |  |
| AUAAAAGCGCCAGAACUACAGAAAUGUAGUUGACGAGGAGGGGGUUUAUCGAAUUUCCGGCGGAUGCCUCCAAA | 0.000292 ± 1.6e-05 | 2270 ± 300 |  | 6.98e-05 ± 2e-05 | 0.000145 ± 2.7e-05 | 0.000242 ± 3.4e-05 |  |
| AUAAAAGCGCCAGAACUACAGAAAUGUAGUUGACGAGGAGGGGGUUUAUCGAAUUUUGGGCGGAUGCCUCCAAA | 0.000303 ± 2.3e-05 | 6970 ± 950 |  |  | 7.8e-05 ± 1.5e-05 | 0.00018 ± 2.6e-05 |  |
| AUAAAAGCGCCAGAACUACAGAAAUGUAGUUGACGAGGAGGGGGUUUAUCGAAUUUUCGGCGGAUUCCUCCAAA | 0.00257 ± 0.00027 | 1900 ± 310 | 0.000171 ± 2.6e-05 | 0.000688 ± 8.4e-05 | 0.00166 ± 0.00027 | 0.0021 ± 0.00021 | 5.91e-05 ± 9e-06 |
| AUAAAAGCGCCAGAACUACAGAAAUGUAGUUGACGAGGAGGGGAUUUAUCGAAUUUUCGGCGGAUGCCUCCAAA | 0.00011 ± 2.6e-05 |  |  |  | 7.65e-05 ± 1.8e-05 | 8.49e-05 ± 1.1e-05 |  |
| AUAAAAGCGCCAGAACUACAGAAAUGUAGUUGACGAGGAGGGGGUUUAUCGAAUUUUCGGCGGAUGCCUCCAAA | 0.0432 ± 0.015 | 1270 ± 530 | 0.00406 ± 0.00021 | 0.0128 ± 0.00054 | 0.0238 ± 0.0016 | 0.0639 ± 0.0036 | 0.00143 ± 3.4e-05 |
| AUAAAAGCGCCAGAACUACAGAAAUGUAGUUGACGAGGAGGUGGUUUAUCGAAUUUUCGGCGGAUGCCUCCAAA | 0.00024 ± 2.1e-05 | 1350 ± 270 | 2.06e-05 ± 1.8e-06 | 7.53e-05 ± 1.4e-06 | 0.000187 ± 3.7e-06 | 0.000203 ± 2.9e-06 | < 1e-05 |
| AUAAAAGCGCCAGAACUACAGAAAUGUAGUUGACGAGGAGGGGGUUUAUCGAAUUUUCGGCGGAUGCCUCGAAA | 0.00124 ± 0.0003 | 510 ± 230 | 0.000264 ± 4.3e-05 | 0.000668 ± 8.8e-05 | 0.000941 ± 0.00016 | 0.00158 ± 0.0003 | 0.000167 ± 3.5e-05 |
| AUAAAAGCGCCAGAACUACAGAAAUGUAGUUGACGAGGAGGGGGUUUAUCGAAUUCUCGGCGGAUGCCUCCAAA | 0.00693 ± 0.0014 | 3180 ± 860 | 0.000469 ± 8.9e-05 | 0.00106 ± 0.00018 | 0.00317 ± 0.0005 | 0.00522 ± 0.0008 | 7.76e-05 ± 1.5e-05 |
| AUAAAAGCGCCAGAACUACAGAAAUGUAGUUGACGAGGAGGGGGUUUAUCGAAUUAUCGGCGGAUGCCUCCAAA | 0.0334 ± 0.011 | 4460 ± 1800 | 0.000893 ± 0.00024 | 0.00451 ± 0.001 | 0.0106 ± 0.0033 | 0.024 ± 0.0052 | 0.000401 ± 8.1e-05 |
| AUAAAAGCGCCAGAACUACAGAAAUGUAGUUGACGAGGAGGGGGUUUAUCGAACUUUCGGCGGAUGCCUCCAAA | 0.0476 ± 0.013 | 3020 ± 1100 | 0.00208 ± 0.001 | 0.0066 ± 0.0019 |  | 0.0394 ± 0.008 | 0.000795 ± 0.00016 |
| AUAAAAGCGCCAGAACUACAGAAAUGUAGUUGACGAGGAGGGGGUUUAUCGAAUUUUCGGCGGAGGCCUCCAAA | 0.00591 ± 0.00097 | 4220 ± 930 | 0.000279 ± 7.4e-05 | 0.000708 ± 0.00015 | 0.00211 ± 0.00033 | 0.00436 ± 0.00084 | 5.66e-05 ± 1.2e-05 |
| AUAAAAGCGCCAGAACUACAGAAAUGUAGUUGACGAGGAGGGGGUUUAUCGAAUUUUCGGCGGAUGCCGCCAAA | 0.000182 ± 2.9e-05 |  |  | 0.000119 ± 4.1e-05 |  | 0.000202 ± 4.3e-05 | 5.35e-05 ± 2.1e-05 |
